# Data from article PMC212687.
# Biological target: RAG1;RAG2;HMG (HMG-1/2) (;;) (UniProt P15919+P21784)
# Test: EMSA
# Settings: Standard gel shift, conditions as in Fugmann et al. 2000b (not given in the material), three experiments
sequence,measurement,setting,value
GATCTGGCCTGGTCTGCACAACCCTGTGACTCCCAACAAAAACCTGCACTCGAGCGGAG (double strand) [N (Jβ2.6 with consensus nonamer)],binding signal (relative to Jβ2.2),up to level of Jβ2.2,1
GATCTGGCCTGGTCTGCACAACCCTGTGACTCCCAAGAGAAACCTGCACTCGAGCGGAG (double strand) [Jβ2.6 12-RSS],binding signal (relative to Jβ2.2),about 2-fold reduced,0.5
GATCTGGCCTGGTCTGCACAGTGCAGATCTAGGAGACAAAAACCTGCACTCGAGCGGAG (double strand) [H-Sac-N],binding signal (relative to H-Sc-N),about 3-fold reduced vs H-Sc-N,0.33
GATCTGGCCTGGTTTGCACAGTCCTGGAAATGCTGGCACAAACCTGCACTCGAGCGGAG (double strand) [Jβ2.2 12-RSS],binding signal (relative to Jβ2.2),,1
